In this experiment the target is αvβ3 and α5β1 integrins presented on adjacent cells. The experiment in a line: cell-based or functional assay.

On to NYRCRGDDSK [peptide …], for which the % cell aggregates of WT cells with … 10 nM came to 67%, the % cell aggregates of WT cells with … 30 nM was determined as 46% and the % cell aggregates of WT cells with … 50 nM came to 28%.

B1: wild-type VCIP/PAP2b, HA-tagged, expressed from pLNCX2-VCIP-RGD, O14495 1-311 (protein)
chain: YPYDVPDYAYPYDVPDYAYPYDVPDYAMQNYKYDKAIVPESKNGGSPALNNNPRRSGSKRVLLICLDLFCLFMAGLPFLIIETSTIKPYHRGFYCNDESIKYPLKTGETINDAVLCAVGIVIAILAIITGEFYRIYYLKKSRSTIQNPYVAALYKQVGCFLFGCAISQSFTDIAKVSIGRLRPHFLSVCNPDFSQINCSEGYIQNYRCRGDDSKVQEARKSFFSGHASFSMYTMLYLVLYLQARFTWRGARLLRPLLQFTLIMMAFYTGLSRVSDHKHHPSDVLAGFAQGALVACCIVFFVSDLFKTKTTLSLPAPAIRKEILSPVDIIDRNNHHNMM
B1 had a % cell aggregates, HEK cells stably expressing pLNCX2-VCIP-RGD (WT), no substance of 94%.

B2: mutant VCIP/PAP2b-RGE, HA-tagged, expressed from pLNCX2-VCIP-RGE, O14495 1-311 (protein)
chain: YPYDVPDYAYPYDVPDYAYPYDVPDYAMQNYKYDKAIVPESKNGGSPALNNNPRRSGSKRVLLICLDLFCLFMAGLPFLIIETSTIKPYHRGFYCNDESIKYPLKTGETINDAVLCAVGIVIAILAIITGEFYRIYYLKKSRSTIQNPYVAALYKQVGCFLFGCAISQSFTDIAKVSIGRLRPHFLSVCNPDFSQINCSEGYIQNYRCRGEDSKVQEARKSFFSGHASFSMYTMLYLVLYLQARFTWRGARLLRPLLQFTLIMMAFYTGLSRVSDHKHHPSDVLAGFAQGALVACCIVFFVSDLFKTKTTLSLPAPAIRKEILSPVDIIDRNNHHNMM
Molecule B2 showed a % cell aggregates, HEK cells stably expressing pLNCX2-VCIP-RGE (MT), no substance of 0%.

Molecule NYRCRADDSK [mutant peptide …] came in with a % cell aggregates of WT cells with … 10 nM of 92%, a % cell aggregates of WT cells with … 30 nM of 89% and a % cell aggregates of WT cells with … 50 nM of 90%.

Values taken from patent publication US20050002904A1, “Uses of vascular endothelial growth factor and type I collagen inducible protein (VCIP)” (priority 2003, published 2005).
